Experimental data published in patent US20210238260.
Where a chain is given by its changes, count along the chain named. In names and notes the source's numbering stands.

B1: FIXa-R318Y/R338E/R403E/E410N/T412A (protein)
chain 1: YNSGKLEEFVQGNLERECMEEKCSFEEAREVFENTERTTEFWKQYVDGDQCESNPCLNGGSCKDDINSYECWCPFGFEGKNCELDVTCNIKNGRCEQFCKNSADNKVVCSCTEGYRLAENQKSCEPAVPFPCGRVSVSQTSKLTR
chain 2: VVGGEDAKPGQFPWQVVLNGKVDAFCGGSIVNEKWIVTAAHCVETGVKITVVAGEHNIEETEHTEQKRNVIRIIPHHNYNAAINKYNHDIALLELDEPLVLNSYVTPICIADKEYTNIFLKFGSGYVSGWGRVFHKGYSALVLQYLRVPLVDRATCLESTKFTIYNNMFCAGFHEGGRDSCQGDSGGPHVTEVEGTSFLTGIISWGEECAMKGKYGIYTKVSEYVNWIKNKAKLT
B2: FIXa-N260S/R318Y/R338E/R403E/E410N (protein)
chain 1: B1 chain 1
chain 2: B1 chain 2 with N80S, A232T
B3: FIXa-D104N/K106S/N260S/R318Y/R338E/R403E/E410N (protein)
chain 1: B1 chain 1 with D104N, K106S
chain 2: B1 chain 2 with N80S, A232T
B4: FIXa-R318Y/R338E/E410N/T412V (protein)
chain 1: B1 chain 1
chain 2: B1 chain 2 with E223R, A232V
B5: FIXa-Y155F/R318Y/R338E/N346D/R403E/E410N (protein)
chain 1: B1 chain 1
chain 2: B1 chain 2 with N166D, A232T

Tests used:
[1] = target: Factor X (FX), P00742
Sequence of Factor X (FX), P00742 (P00742 whole entry, looked up): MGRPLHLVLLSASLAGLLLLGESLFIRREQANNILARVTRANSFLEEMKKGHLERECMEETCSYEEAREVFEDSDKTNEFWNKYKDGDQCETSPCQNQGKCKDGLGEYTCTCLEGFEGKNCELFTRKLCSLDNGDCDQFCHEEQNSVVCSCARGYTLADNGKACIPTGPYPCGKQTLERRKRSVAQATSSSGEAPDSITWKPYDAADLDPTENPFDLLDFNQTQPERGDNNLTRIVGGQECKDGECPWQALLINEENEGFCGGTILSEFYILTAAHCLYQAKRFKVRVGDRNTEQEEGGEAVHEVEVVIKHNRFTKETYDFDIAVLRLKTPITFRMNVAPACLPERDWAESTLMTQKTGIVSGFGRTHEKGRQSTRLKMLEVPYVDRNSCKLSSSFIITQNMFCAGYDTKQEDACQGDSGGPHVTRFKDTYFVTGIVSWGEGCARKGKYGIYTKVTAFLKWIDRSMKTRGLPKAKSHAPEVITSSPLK

[2] = target: Factor X, P00742
Sequence of Factor X, P00742 (P00742 whole entry, looked up): as above

[3] = target: plasma purified human AT-III (antithrombin III); assay: AT-III/UFH inhibition K0.5, ratio to Catalyst Biosciences WT FIXa
[4] = target: plasma purified human antithrombin III (AT-III), as complex with unfractionated heparin; assay: ratio of K0.5 (lower limit) to Catalyst Biosciences WT FIXa, AT-III/UFH inhibition

| Protein | KM [1] [µM] | kcat of FX activation by FIXa (Xase complex with FVIIIa, PC/PS vesicles, Ca2+) [1] [s⁻¹] | % of WT kcat/KM [2] [%] | kcat [2] [s⁻¹] | kcat/KM [2] [M⁻¹ s⁻¹] | K0.5-mut/K0.5-wt [3] | K0.5-mut/K0.5-wt [4] |
| --- | --- | --- | --- | --- | --- | --- | --- |
| B1 | 0.0335 | 7.8 | 577 | 8.4 | 2.6e+08 | > 517 | 517 |
| B2 | 0.0724 | 3.8 | 117 | 3.8 | 5.3e+07 | > 517 | 517 |
| B3 | 0.0611 | 5.4 | 196 | 5.4 | 8.8e+07 | > 517 | 517 |
| B4 | 0.0297 | 5.2 | 536 | 6.3 | 2.4e+08 | 252 | 517 |
| B5 | 0.1 | 6.4 | 139 | 6.4 | 6.2e+07 | > 517 | 517 |
